According to the RNAGym collection of RNA variant scans (doi:10.7554/elife.80360):

B1: Twister Ribozyme (parent)
chain: AACACUGCCAAUGCCGGUCCCAAGCCCGGAUAAAAGUGGAGGGGGCGG

Variants of: B1
Assay: self-cleavage, relative activity (ratio to wild type); higher = more cleavage; co-transcriptional

Q: Which self-cleavage does the source give for AACACUGCCAAUGCCGGUCCCUAGCCCGGAUAAAAGUGGCGGGGGCGG here?
A: Its self-cleavage is 0.184.

Q: Which self-cleavage does the source give for AACACUGCCAAUGCCGGUCCCUAGCCCGGAUAAAAGUGGGGGGGGCGG here?
A: Its self-cleavage is 0.734.

Q: For AACACUGCCAAUGCCGGUCCCGAGCCCGGAUAAAAGUGGAGGGGCCGG, which self-cleavage is on record?
A: The self-cleavage was 0.124.

Q: Which self-cleavage does the source give for AACACUGCCAAUGCCGGUCCCUAGCCCGGAGAAAAGUGGAGGGGGCGG here?
A: The self-cleavage was 0.833.

Q: Which self-cleavage does the source give for AACACUGCCAAUGCCGGUCCCUAGCCCGGAAAAAAGUGGAGGGGGCGG here?
A: Its self-cleavage is 0.521.

Q: With AACACUGCCAAUGCCGGUCCCACGCCCGGUUAAAAGUGGAGGGGGCGG as the variant, how does the self-cleavage read?
A: Its self-cleavage is 0.264.

Q: With AACACUGCCAAUGCCGGUCCCACGCCCGGCUAAAAGUGGAGGGGGCGG as the variant, how does the self-cleavage read?
A: Its self-cleavage is 0.116.

Q: With AACACUGCCAAUGCCGGUCCCGAGCCCAGAUAAAAGUGGAGGGGGCGG as the variant, how does the self-cleavage read?
A: The self-cleavage was 0.128.

Q: For AACACUGCCAAUGCCGGUCCCGAGCCCUGAUAAAAGUGGAGGGGGCGG, which self-cleavage is on record?
A: The self-cleavage was 0.197.

Q: For AACACUGCCAAUGCCGGUCCCGAGCCCCGAUAAAAGUGGAGGGGGCGG, which self-cleavage is on record?
A: Its self-cleavage is 0.215.

Q: For AACACUGCCAAUGCCGGUCCCUAGCCCGGCUAAAAGUGGAGGGGGCGG, which self-cleavage is on record?
A: Its self-cleavage is 0.614.

Q: With AACACUGCCAAUGCCGGUCCCUAGCCCGGAUAAUAGUGGAGGGGGCGG as the variant, how does the self-cleavage read?
A: The self-cleavage was 0.495.

Q: For AACACUGCCAAUGCCGGUCCCUAGCCCGGAUAACAGUGGAGGGGGCGG, which self-cleavage is on record?
A: Its self-cleavage is 0.0816.

Q: Which self-cleavage does the source give for AACACUGCCAAUGCCGGUCCCGAGCCCGGAUAAAAGUGGAGGGGGCAG here?
A: The self-cleavage was 0.184.

Q: For AACACUGCCAAUGCCGGUCCCGAGCCCGGAUAAAAGUGGAGGGGGCCG, which self-cleavage is on record?
A: The self-cleavage was 0.128.

Q: Which self-cleavage does the source give for AACACUGCCAAUGCCGGUCCCGAGCCCGGAUAAAAGUGGAGGGGGCUG here?
A: Its self-cleavage is 0.136.

Q: With AACACUGCCAAUGCCGGUCCCUAGCCAGGAUAAAAGUGGAGGGGGCGG as the variant, how does the self-cleavage read?
A: Its self-cleavage is 0.159.

Q: Which self-cleavage does the source give for AACACUGCCAAUGCCGGUCCCGAGCCCGGUUAAAAGUGGAGGGGGCGG here?
A: The self-cleavage was 0.316.

Q: With AACACUGCCAAUGCCGGUCCCGAGCCCGGGUAAAAGUGGAGGGGGCGG as the variant, how does the self-cleavage read?
A: Its self-cleavage is 0.394.

Q: With AACACUGCCAAUGCCGGUCCCUAGCCCGGAUAAAAGUGGAGGGGCCGG as the variant, how does the self-cleavage read?
A: Its self-cleavage is 0.401.

Q: Which self-cleavage does the source give for AACACUGCCAAUGCCGGUCCCUAGCCCGGAUAAAAGUGGAGGGGUCGG here?
A: The self-cleavage was 0.57.

Q: With AACACUGCCAAUGCCGGUCCCGAGCCCGGAUAAAAGUGGACGGGGCGG as the variant, how does the self-cleavage read?
A: The self-cleavage was 0.133.

Q: Which self-cleavage does the source give for AACACUGCCAAUGCCGGUCCCACGCACGGAUAAAAGUGGAGGGGGCGG here?
A: Its self-cleavage is 0.199.

Q: For AACACUGCCAAUGCCGGUCCCACGCGCGGAUAAAAGUGGAGGGGGCGG, which self-cleavage is on record?
A: Its self-cleavage is 0.12.

Q: For AACACUGCCAAUGCCGGUCCCCAGCCCGGAUAAAAGUGGAGGGGUCGG, which self-cleavage is on record?
A: The self-cleavage was 0.946.

Q: Which self-cleavage does the source give for AACACUGCCAAUGCCGGUCCCCAGCCCGGAUAAAAGUGGAGGGGCCGG here?
A: The self-cleavage was 0.491.

Q: With AACACUGCCAAUGCCGGUCCCUAGCCCGGAUAAAAGUGGAGUGGGCGG as the variant, how does the self-cleavage read?
A: The self-cleavage was 0.191.

Q: Which self-cleavage does the source give for AACACUGCCAAUGCCGGUCCCUAGCCCGGAUAAAAGUGGAGCGGGCGG here?
A: Its self-cleavage is 0.154.

Q: Which self-cleavage does the source give for AACACUGCCAAUGCCGGUCCCGAUCCCGGAUAAAAGUGGAGGGGGCGG here?
A: The self-cleavage was 0.0699.

Q: With AACACUGCCAAUGCCGGUCCCGAACCCGGAUAAAAGUGGAGGGGGCGG as the variant, how does the self-cleavage read?
A: Its self-cleavage is 0.114.

Q: With AACACUGCCAAUGCCGGUCCCCAGCCCGGAUAAAAGGGGAGGGGGCGG as the variant, how does the self-cleavage read?
A: Its self-cleavage is 0.631.

Q: Which self-cleavage does the source give for AACACUGCCAAUGCCGGUCCCCAGCCCGGAUAAAAGAGGAGGGGGCGG here?
A: The self-cleavage was 0.84.

Q: Which self-cleavage does the source give for AACACUGCCAAUGCCGGUCCCGAGCCCGGAUGAAAGUGGAGGGGGCGG here?
A: The self-cleavage was 0.25.

Q: With AACACUGCCAAUGCCGGUCCCUAGCCCGGAUAAAAGUGGAUGGGGCGG as the variant, how does the self-cleavage read?
A: The self-cleavage was 0.137.

Q: For AACACUGCCAAUGCCGGUCCCGAGGCCGGAUAAAAGUGGAGGGGGCGG, which self-cleavage is on record?
A: The self-cleavage was 0.0838.

Q: Which self-cleavage does the source give for AACACUGCCAAUGCCGGUCCCGAGACCGGAUAAAAGUGGAGGGGGCGG here?
A: The self-cleavage was 0.0752.

Q: Which self-cleavage does the source give for AACACUGCCAAUGCCGGUCCCGAGCCCGGAUAAAAGUGAAGGGGGCGG here?
A: Its self-cleavage is 0.101.

Q: Which self-cleavage does the source give for AACACUGCCAAUGCCGGUCCCGAGCCCGGAUAAAAGUGUAGGGGGCGG here?
A: Its self-cleavage is 0.109.

Q: For AACACUGCCAAUGCCGGUCCCGAGCCCGGAGAAAAGUGGAGGGGGCGG, which self-cleavage is on record?
A: Its self-cleavage is 0.263.

Q: Which self-cleavage does the source give for AACACUGCCAAUGCCGGUCCCGAGCCCGGAUAAAAGUGGAGCGGGCGG here?
A: The self-cleavage was 0.0934.

Q: For AACACUGCCAAUGCCGGUCCCGAGCCCGGAUAAAAGUGGAGAGGGCGG, which self-cleavage is on record?
A: The self-cleavage was 0.0942.

Q: Which self-cleavage does the source give for AACACUGCCAAUGCCGGUCCCGAGCUCGGAUAAAAGUGGAGGGGGCGG here?
A: Its self-cleavage is 0.101.

Q: With AACACUGCCAAUGCCGGUCCCCAGCCCGGAUAAAAGUGGAGGGUGCGG as the variant, how does the self-cleavage read?
A: The self-cleavage was 0.967.

Q: For AACACUGCCAAUGCCGGUCCCCAGCCCGGAUAAAAGUGGAGGGGGCCG, which self-cleavage is on record?
A: The self-cleavage was 0.458.

Q: Which self-cleavage does the source give for AACACUGCCAAUGCCGGUCCCGAGCCCGGAUAAAAGUGGAGGGGGGGG here?
A: Its self-cleavage is 0.328.

Q: Which self-cleavage does the source give for AACACUGCCAAUGCCGGUCCCGAGCCCGGAUAAAAGUGGAGGGGGAGG here?
A: The self-cleavage was 0.227.

Q: For AACACUGCCAAUGCCGGUCCCUAGCCCGGAUAAAAGUGGAGGGAGCGG, which self-cleavage is on record?
A: Its self-cleavage is 0.788.

Q: For AACACUGCCAAUGCCGGUCCCUAGCCCGCAUAAAAGUGGAGGGGGCGG, which self-cleavage is on record?
A: The self-cleavage was 0.604.

Q: With AACACUGCCAAUGCCGGUCCCUAGCCCGAAUAAAAGUGGAGGGGGCGG as the variant, how does the self-cleavage read?
A: Its self-cleavage is 0.644.

Q: With AACACUGCCAAUGCCGGUCCCACGCCCGGAUAAAAGUGGAGGGGGCGG as the variant, how does the self-cleavage read?
A: The self-cleavage was 0.385.

Q: Which self-cleavage does the source give for AACACUGCCAAUGCCGGUCCCUAGCCCGGAUCAAAGUGGAGGGGGCGG here?
A: The self-cleavage was 0.859.

Q: With AACACUGCCAAUGCCGGUCCCUAGCCCGGAUUAAAGUGGAGGGGGCGG as the variant, how does the self-cleavage read?
A: Its self-cleavage is 0.71.

Q: For AACACUGCCAAUGCCGGUCCCUAGCCCGGAUGAAAGUGGAGGGGGCGG, which self-cleavage is on record?
A: The self-cleavage was 0.786.

Q: With AACACUGCCAAUGCCGGUCCCUAGCGCGGAUAAAAGUGGAGGGGGCGG as the variant, how does the self-cleavage read?
A: Its self-cleavage is 0.0767.
